Laboratory results published in US12630600B2 (MEDIMMUNE LIMITED, priority 2022, dated 2026).
Starred links: 1 amine or outer side, 2 acyl side, 3 side chain; linkers in the order of their positions; H or OH if unused. Non-standard residues stand in square brackets, D forms with d. Groups on a side chain read outwards from the residue. No end group written: not given here. *: point of attachment. C18 diacid = O=C(O)CCCCCCCCCCCCCCCCC(=O)*; γGlu = O=C(O)[C@H](CCC(=O)[*:2])N[*:1]; αMeF = C[C@](N)(Cc1ccccc1)C(=O)O; AEEA = NCCOCCOCC(=O)O; Aib = CC(C)(N)C(=O)O

B1: Peptide 40 (peptide)
peptide: H[Aib]QGTFTSDVSK[αMeF]LDSK([AEEA-AEEA-γGlu-C18 diacid])RAQDFVQWLL[Aib]T-OH
modifications: N-terminus assumed
SMILES: CC(C)C[C@H](NC(=O)[C@H](Cc1c[nH]c2ccccc12)NC(=O)[C@H](CCC(N)=O)NC(=O)[C@@H](NC(=O)[C@H](Cc1ccccc1)NC(=O)[C@H](CC(=O)O)NC(=O)[C@H](CCC(N)=O)NC(=O)[C@H](C)NC(=O)[C@H](CCCNC(=N)N)NC(=O)[C@H](CCCCNC(=O)COCCOCCNC(=O)COCCOCCNC(=O)CC[C@H](NC(=O)CCCCCCCCCCCCCCCCC(=O)O)C(=O)O)NC(=O)[C@H](CO)NC(=O)[C@H](CC(=O)O)NC(=O)[C@H](CC(C)C)NC(=O)[C@](C)(Cc1ccccc1)NC(=O)[C@H](CCCCN)NC(=O)[C@H](CO)NC(=O)[C@@H](NC(=O)[C@H](CC(=O)O)NC(=O)[C@H](CO)NC(=O)[C@@H](NC(=O)[C@H](Cc1ccccc1)NC(=O)[C@@H](NC(=O)CNC(=O)[C@H](CCC(N)=O)NC(=O)C(C)(C)NC(=O)[C@@H](N)Cc1c[nH]cn1)[C@@H](C)O)[C@@H](C)O)C(C)C)C(C)C)C(=O)N[C@@H](CC(C)C)C(=O)NC(C)(C)C(=O)N[C@H](C(=O)O)[C@@H](C)O
B2: Peptide 3 (peptide)
peptide: HSQGS[αMeF]TSDVSK[αMeF]LDSK([γGlu-C18 diacid])AAQDFVQWIANT-NH2
modifications: N-terminus assumed
SMILES: CC[C@H](C)[C@H](NC(=O)[C@H](Cc1c[nH]c2ccccc12)NC(=O)[C@H](CCC(N)=O)NC(=O)[C@@H](NC(=O)[C@H](Cc1ccccc1)NC(=O)[C@H](CC(=O)O)NC(=O)[C@H](CCC(N)=O)NC(=O)[C@H](C)NC(=O)[C@H](C)NC(=O)[C@H](CCCCNC(=O)CC[C@H](NC(=O)CCCCCCCCCCCCCCCCC(=O)O)C(=O)O)NC(=O)[C@H](CO)NC(=O)[C@H](CC(=O)O)NC(=O)[C@H](CC(C)C)NC(=O)[C@](C)(Cc1ccccc1)NC(=O)[C@H](CCCCN)NC(=O)[C@H](CO)NC(=O)[C@@H](NC(=O)[C@H](CC(=O)O)NC(=O)[C@H](CO)NC(=O)[C@@H](NC(=O)[C@](C)(Cc1ccccc1)NC(=O)[C@H](CO)NC(=O)CNC(=O)[C@H](CCC(N)=O)NC(=O)[C@H](CO)NC(=O)[C@@H](N)Cc1c[nH]cn1)[C@@H](C)O)C(C)C)C(C)C)C(=O)N[C@@H](C)C(=O)N[C@@H](CC(N)=O)C(=O)N[C@H](C(N)=O)[C@@H](C)O
B3: Peptide 42 (peptide)
peptide: H[Aib]QGTFTSDVSK[αMeF]LDSK([AEEA-AEEA-γGlu-C18 diacid])RAQDFVQ[Aib]LVAT-OH
modifications: N-terminus assumed
SMILES: CC(C)C[C@H](NC(=O)C(C)(C)NC(=O)[C@H](CCC(N)=O)NC(=O)[C@@H](NC(=O)[C@H](Cc1ccccc1)NC(=O)[C@H](CC(=O)O)NC(=O)[C@H](CCC(N)=O)NC(=O)[C@H](C)NC(=O)[C@H](CCCNC(=N)N)NC(=O)[C@H](CCCCNC(=O)COCCOCCNC(=O)COCCOCCNC(=O)CC[C@H](NC(=O)CCCCCCCCCCCCCCCCC(=O)O)C(=O)O)NC(=O)[C@H](CO)NC(=O)[C@H](CC(=O)O)NC(=O)[C@H](CC(C)C)NC(=O)[C@](C)(Cc1ccccc1)NC(=O)[C@H](CCCCN)NC(=O)[C@H](CO)NC(=O)[C@@H](NC(=O)[C@H](CC(=O)O)NC(=O)[C@H](CO)NC(=O)[C@@H](NC(=O)[C@H](Cc1ccccc1)NC(=O)[C@@H](NC(=O)CNC(=O)[C@H](CCC(N)=O)NC(=O)C(C)(C)NC(=O)[C@@H](N)Cc1c[nH]cn1)[C@@H](C)O)[C@@H](C)O)C(C)C)C(C)C)C(=O)N[C@H](C(=O)N[C@@H](C)C(=O)N[C@H](C(=O)O)[C@@H](C)O)C(C)C

Target: human glucagon receptor (human, UniProt P47871)
Assay: cell-based or functional assay

Binder	cAMP production, hGluc-R EC50 (pM)
B1	123
B2	149
B3	8190

Target: human GLP-1 receptor (human, UniProt P43220)
Assay: cell-based or functional assay

Binder	cAMP production, hGLP-1R EC50 (pM)
B1	29.9
B2	69
B3	665
